Experimental data published in paper PMC5428028, “Role for the ATPase inhibitory factor 1 in the environmental carcinogen-induced Warburg phenotype” (Scientific Reports, 2017).

Molecular target: the molecule itself
Test: western blot (band of dimer size after electrophoresis); mitochondrial fractions of F258 cells exposed to B[a]P (50 nM or 1 µM, 48 h), lysed in RIPA buffer; 24 kDa band beside the 12 kDa monomer; gel conditions not shown

B1: ATPase inhibitory factor 1 (IF1) (natural protein, rat (endogenous in F258), UniProt Q03344 26-107, looked up)
chain: GSDSSESMDSGAGSIREAGGAFGKREKAEEDRYFREKTREQLAALKKHHEDEIDHHSKEIERLQKQIERHKKKIKYLKNSEH
notes: monomeric form printed as 12 kDa, dimer band as 24 kDa; Detected with a polyclonal rabbit anti-ATPIF1 antibody, used only as a tool; The western blot methods are in the Supplementary Information; also called ATPIF1; source: endogenous, mitochondrial fraction of F258 rat liver epithelial cells, lysed in RIPA buffer
stoichiometry N: 2
